“And” between values parts separate entries of the source, which are not always exact repeats. Equal entries are not always repeated.

The target of experiment [1] is T1, Human membrane IL-6R on cells (human, UniProt P08887 20-468).
T1 sequence (looked up): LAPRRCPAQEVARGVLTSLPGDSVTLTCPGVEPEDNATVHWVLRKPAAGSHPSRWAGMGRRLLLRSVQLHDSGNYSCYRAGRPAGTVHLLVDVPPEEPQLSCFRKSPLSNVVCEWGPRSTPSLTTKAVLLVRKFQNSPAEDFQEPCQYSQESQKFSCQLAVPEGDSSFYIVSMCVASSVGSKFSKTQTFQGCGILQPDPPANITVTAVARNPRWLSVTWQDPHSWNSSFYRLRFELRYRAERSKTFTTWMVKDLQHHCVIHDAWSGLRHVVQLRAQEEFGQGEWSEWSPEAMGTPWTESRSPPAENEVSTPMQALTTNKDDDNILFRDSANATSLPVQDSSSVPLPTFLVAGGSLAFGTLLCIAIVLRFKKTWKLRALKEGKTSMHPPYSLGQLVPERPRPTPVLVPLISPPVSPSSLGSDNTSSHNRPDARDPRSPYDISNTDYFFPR
The experiment in a line: cell-based or functional assay.

The target in experiment [2] is T1, Human membrane IL-6R on cells. Kind of experiment: cell-based or functional assay. This is another data set of the same source.
Experiment [3] has the same target. Kind of experiment: cell-based or functional assay. The source holds these as a separate data set.
Experiment [4] has the same target. The experiment in a line: cell-based or functional assay. The source holds these as a separate data set.
The target in experiment [5] is T2, Human soluble IL-6R (human, UniProt P08887 20-358).
T2 construct: Soluble recombinant form; biotinylated in some assays; also called hIL-6R; human IL-6R
T2 sequence (looked up): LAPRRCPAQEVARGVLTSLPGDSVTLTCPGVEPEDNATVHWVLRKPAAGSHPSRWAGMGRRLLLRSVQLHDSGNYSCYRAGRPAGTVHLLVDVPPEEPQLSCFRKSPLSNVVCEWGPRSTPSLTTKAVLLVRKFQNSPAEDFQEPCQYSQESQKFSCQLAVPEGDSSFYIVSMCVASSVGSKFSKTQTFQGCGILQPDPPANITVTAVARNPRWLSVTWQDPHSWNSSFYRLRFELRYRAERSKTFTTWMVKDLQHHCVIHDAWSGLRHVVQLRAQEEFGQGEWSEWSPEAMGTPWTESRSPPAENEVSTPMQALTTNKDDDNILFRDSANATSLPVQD
Kind of experiment: Biacore off-rate, periplasmic extract. For orientation: Surface plasmon resonance follows binding to a sensor surface in real time, without labels.

The target of experiment [6] is T2, Human soluble IL-6R. Kind of experiment: Biacore, binding to IL-6R (parent value).
The target of experiment [7] is T2, Human soluble IL-6R. The experiment in a line: SPR Biacore 3000, IL-6R amine-coupled to CM5.
Procedure: (§1) Nanobodies were injected at 5 different concentrations between 1 and 50 nM. Flow rate was 45 μl/min in all experiments. Association and dissociation phase were 3 and 10 min, respectively. The chip was regenerated using Glycine/HCl pH 1.5.
Experiment [8] addresses T3, Cyno IL-6R (cynomolgus monkey, UniProt A0A2K5WN54 60-396).
T3 construct: also called cynomolgus monkey IL-6R; recombinant cyno sIL-6R
T3 sequence: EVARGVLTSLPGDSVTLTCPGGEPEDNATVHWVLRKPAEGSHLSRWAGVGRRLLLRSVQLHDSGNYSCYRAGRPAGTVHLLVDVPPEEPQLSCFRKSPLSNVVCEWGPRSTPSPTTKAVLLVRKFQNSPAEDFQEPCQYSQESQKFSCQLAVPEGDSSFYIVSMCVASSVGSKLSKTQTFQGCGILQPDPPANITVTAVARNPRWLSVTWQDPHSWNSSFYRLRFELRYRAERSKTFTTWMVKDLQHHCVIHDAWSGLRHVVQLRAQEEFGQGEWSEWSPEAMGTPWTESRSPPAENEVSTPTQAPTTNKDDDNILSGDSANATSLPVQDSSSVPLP
The experiment in a line: SPR Biacore 3000, cyno IL-6R amine-coupled to CM5.
Procedure: Remaining reactive groups were inactivated. […] Each sample was injected for 4 min at a flow rate of 45 μl/min to allow for binding to chip-bound antigen. Next, binding buffer without Nanobody was sent over the chip at the same flow rate to allow for dissociation of bound Nanobody.

Experiment [9] addresses T2, Human soluble IL-6R. The experiment in a line: Alphascreen, inhibition of bio-IL-6 binding to IL-6R.
Procedure: (§2) Finally streptavidin donor beads were added and after 1 hour incubator the plate was read on the Envision microplate reader.
The target in experiment [10] is T2, Human soluble IL-6R. The experiment in a line: summary table C-13 of Nanobody characteristics, Kd on IL-6R.
Procedure: as §1
The target in experiment [11] is T2, Human soluble IL-6R. The experiment in a line: inhibition of the IL-6/IL-6R interaction, summary table C-13.
Procedure: as §2
The target in experiment [12] is T2, Human soluble IL-6R. The experiment in a line: competition for IL-6R, competitor reference Fab, summary table C-13.
For experiment [13], the target named is T2, Human soluble IL-6R. The experiment in a line: Alphascreen, 100 nM Nanobody, 0.4 nM bio-IL-6R; competitor: reference Fab. For orientation: Bead proximity is the source of the signal in Alpha formats.
Experiment [14] addresses T4, Mouse IL-6R (mouse, UniProt P22272 20-364, limits assumed).
T4 construct: also called mouse sIL-6R
T4 sequence (looked up): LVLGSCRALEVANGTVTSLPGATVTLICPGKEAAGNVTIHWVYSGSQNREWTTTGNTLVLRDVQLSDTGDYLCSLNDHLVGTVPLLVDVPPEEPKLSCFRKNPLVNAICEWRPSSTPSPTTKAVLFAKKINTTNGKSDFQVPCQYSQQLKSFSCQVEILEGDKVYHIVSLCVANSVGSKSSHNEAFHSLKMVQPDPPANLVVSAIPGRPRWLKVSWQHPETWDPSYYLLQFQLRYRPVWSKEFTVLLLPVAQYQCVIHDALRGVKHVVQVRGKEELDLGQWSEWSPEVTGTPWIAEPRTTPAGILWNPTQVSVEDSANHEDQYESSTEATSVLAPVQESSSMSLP
The experiment in a line: ELISA: plate coated with 1 µg/ml mouse IL-6R, 500 nM Nanobody, anti-myc + anti-mouse-HRP. Background: ELISA stands for enzyme-linked immunosorbent assay.
Procedure: Detection was performed with anti-myc and anti-mouse-HRP as first and second antibody respectively.

The target of experiment [15] is T5, Human plasma sIL-6R (human, UniProt P08887 20-355, limits assumed).
T5 construct: also called plasma-derived human IL-6R
T5 sequence (looked up): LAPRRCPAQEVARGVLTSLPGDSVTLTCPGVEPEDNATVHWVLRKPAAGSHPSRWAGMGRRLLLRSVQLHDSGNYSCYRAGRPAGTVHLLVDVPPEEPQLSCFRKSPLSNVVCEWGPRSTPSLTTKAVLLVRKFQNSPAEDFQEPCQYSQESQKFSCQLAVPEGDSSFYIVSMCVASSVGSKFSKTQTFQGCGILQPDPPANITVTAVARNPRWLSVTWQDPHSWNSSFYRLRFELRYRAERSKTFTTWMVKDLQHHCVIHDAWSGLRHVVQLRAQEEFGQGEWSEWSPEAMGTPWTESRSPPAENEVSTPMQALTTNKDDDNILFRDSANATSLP
Kind of experiment: plasma potency ELISA in human plasma at the EC50 of IL-6 (50 ng/mL); blocked ligand IL-6.

Experiment [16] has as its target T5, Human plasma sIL-6R. The experiment in a line: plasma potency ELISA in human plasma at the EC95 of IL-6 (885 ng/mL); blocked ligand IL-6.
Experiment [17] addresses T2, Human soluble IL-6R. Kind of experiment: Alphascreen IL-6/IL-6R competition with purified Nanobody; row EC50 of the table, axis [inhibitor], M; blocked ligand IL-6.
Experiment [18] has as its target T2, Human soluble IL-6R. Kind of experiment: Alphascreen IL-6/IL-6R competition (IL-6R 0.3 nM, bio-IL-6 3 nM); row EC50 of the fit table, axis [competitor], M; blocked ligand IL-6.
Experiment [19] addresses T2, Human soluble IL-6R. Kind of experiment: Biacore T100.
The target in experiment [20] is T2, Human soluble IL-6R. Kind of experiment: Biacore T100, IL-6R covalently coupled.
The target in experiment [21] is T2, Human soluble IL-6R. Kind of experiment: Biacore T100, IL-6R captured via mAb BN-12.
In experiment [22] the target is T2, Human soluble IL-6R. The experiment in a line: SPR Biacore 3000, human IL-6R amine-coupled to CM5.
Procedure: Remaining reactive groups were inactivated. Nanobody binding was assessed at various concentrations ranging from 0.5 to 50 nM. Each sample was injected for 4 min at a flow rate of 45 μl/min to allow for binding to chip-bound antigen. Next, binding buffer without Nanobody was sent over the chip at the same flow rate to allow for dissociation of bound Nanobody.
Experiment [23] concerns the target T5, Human plasma sIL-6R. Kind of experiment: plasma potency ELISA, human plasma, IL-6 at EC50 (50 ng/mL).
Experiment [24] has as its target T5, Human plasma sIL-6R. Kind of experiment: plasma potency ELISA, human plasma, IL-6 at EC95 (885 ng/mL).
The target in experiment [25] is T6, Cyno plasma sIL-6R (cynomolgus monkey, UniProt A0A2K5WN54 60-396).
T6 construct: also called cynomolgus sIL-6R
T6 sequence: T3 sequence
Kind of experiment: plasma potency assay, cyno plasma, 2.4 nM IL6; blocked ligand IL-6.
Procedure: (§3) All 5 affinity matured Nanobodies and the sequence optimized Nanobody were also tested in a plasma potency assay. […] TMB was used as substrate.

The target of experiment [26] is T5, Human plasma sIL-6R. The experiment in a line: plasma potency assay, human plasma, 42 nM IL6; blocked ligand IL-6.
Procedure: as §3
The target of experiment [27] is T5, Human plasma sIL-6R. Kind of experiment: plasma potency assay, human plasma, 2.4 nM IL6; blocked ligand IL-6.
Procedure: as §3
Experiment [28] deals with T2, Human soluble IL-6R. Kind of experiment: SPR (Biacore), binding curves at several concentrations of purified Nanobody on IL-6R.
Experiment [29] concerns the target T5, Human plasma sIL-6R. The experiment in a line: plasma potency assay, human plasma, 42 nM IL6; sIL-6R captured on BN-12, bound IL-6 detected; blocked ligand IL-6.
The target of experiment [30] is T6, Cyno plasma sIL-6R. Kind of experiment: plasma potency ELISA, cyno plasma + human IL-6 50 ng/mL; sIL-6R captured on BN-12, bound IL-6 detected; blocked ligand IL-6.
In experiment [31] the target is T5, Human plasma sIL-6R. Kind of experiment: plasma potency ELISA, human plasma + human IL-6 50 ng/mL; sIL-6R captured on BN-12, bound IL-6 detected; blocked ligand IL-6.
Experiment [32] has as its target T6, Cyno plasma sIL-6R. Kind of experiment: plasma potency assay, cyno plasma ([IL6R]: ~0.4 nM, [IL6]: 2.4 nM printed); sIL-6R captured on BN-12, bound IL-6 detected; blocked ligand IL-6.
For experiment [33], the target named is T5, Human plasma sIL-6R. Kind of experiment: plasma potency assay, human plasma ([IL6R]: ~0.4 nM, [IL6]: 2.4 nM printed); sIL-6R captured on BN-12, bound IL-6 detected; blocked ligand IL-6.

B1: IL6R04 (VHH)
VHH: EVQLVESGGGLVQAGGSLRLSCAASGFTFDDYDIGWFRQAPGKEREGVSGISSSDGNTYYADSVKGRFTISSDNAKNTVYLQMNSLKPEDTAVYYCAAEPPDSSWYLDGSPEFFKYWGQGTQVTVSS
notes: also called PMP32C9; not shown: C-terminal c-myc and (His)6 tags
In general, koff refers to the rate constant with which the complex falls apart. Low readings indicate slow dissociation, high ones fast dissociation. Broadly, the Kd is the concentration at which binding is half-saturated. Usually kon stands for the rate constant with which the complex forms. The term IC50 denotes the concentration at which inhibition is half-maximal. Read a low IC50 as inhibition by little substance. On to B1, for which the “IC50 (nM) + HSA, XG-1 cell proliferation” value in experiment [1] is 0.1 nM. The “IC50 (nM), XG-1 cell proliferation” value in [1] came to 0.1 nM. For the same molecule, the “IC50 (nM), TF1 cell proliferation” value in experiment [2] stood at 0.4 nM. The “IC50 (nM) XG-1” value in experiment [3] amounted to 0.1 nM. Besides, in experiment [4], the “IC50 values (nM), XG-1 assay” value worked out at 0.1 nM. For the same molecule, the off-rate constant (koff) is 0.00015 s⁻¹ in experiment [5]; 9.42e-05 s⁻¹ and 0.00015 s⁻¹ in experiment [7]; 0.01 s⁻¹ in [8]. In addition, the Kd in experiment [6] worked out at 0.3 nM; in experiment [7] it was 0.3 nM; in experiment [8], 171 nM; in [10], 0.3 nM. Also, the kon in [7] is 365000 M⁻¹ s⁻¹; in [8], 58600 M⁻¹ s⁻¹. Further, the IC50 was 0.093 nM in experiment [9], 0.09 nM in experiment [11], 0.0568 nM in experiment [17] and 0.18 nM in experiment [18]. The “Ref Fab competition (%)” value in [12] is 50%. The “Residual reference-Fab binding to IL-6R (%)” value in experiment [13] turned out to be 50%. Besides, in experiment [14], the binding result is listed as “no binding (tested: 500 nM)”. For the same molecule, the “IC50 (read off the curve)” value in [15] was roughly 0.2 nM; in [16], roughly 0.4 nM.

B2: IL6R65 (VHH)
VHH: EVQLVESGGGLVQPGGSLRLSCAASGSIFKVNAMGWYRQAPGKGRELVAGIISGGSTNYADSVKGRFTISRDNAKNTLYLQMNSLRPEDTAVYYCAFVTTNSDYDLGRDYWGQGTLVTVSS
notes: also called ILR65; parent Nanobody
For B2, the Kd in [19] is 3.8 nM; in [8] it was 12 nM; in experiment [22], 4 nM; in experiment [28], 4.3 nM. In addition, the “IC50 values (nM), XG-1 assay” value in [4] worked out at 26 nM. In addition, the koff in experiment [20] turned out to be 0.0038 s⁻¹; in [8] it was 0.00197 s⁻¹; in experiment [22], 0.00235 s⁻¹. Besides, the kon in experiment [21] came to 1e+06 M⁻¹ s⁻¹; in experiment [8], 165000 M⁻¹ s⁻¹; in [22] it was 600000 M⁻¹ s⁻¹. Further, the IC50 worked out at 2.61 nM in experiment [23]; 66.2 nM in experiment [24]; 0.9 nM in experiment [25]; 24.8 nM in [26]; 1.9 nM in experiment [27]; 61.5 nM in [29]. Besides, the IC50 was determined as 0.147 nM in experiment [17], 2.99 nM in experiment [32] and 4.93 nM in experiment [33]. Further, the “IC50 (read off the curve)” value in [30] is roughly 0.1 nM; in experiment [31], roughly 0.7 nM.

Source of the values: US20120077731A1 (Ablynx, published 2012).
